Experimental data: article PMC11172241, “Insight into the Mechanism of Lysogeny Control of phiCDKH01 Bacteriophage Infecting Clinical Isolate of Clostridioides difficile”

How the values were obtained:
[1] = tested on: T1, phiCDKH01 XRE family repressor (XRE-His) (Clostridioides difficile phage phiCDKH01 (host strain CD34/Sr)), UPI000235AC6A; experiment: EMSA; details: 50 mM Tris-HCl pH 7.5, 50 mM NaCl, 200 mM KCl, 50 mM MgCl2, 5 mM EDTA, 5 mM DTT, 0.25 mg/mL BSA, 15 min, room temperature, 0.1 pmol DNA, 0-200 ng protein
T1 sequence: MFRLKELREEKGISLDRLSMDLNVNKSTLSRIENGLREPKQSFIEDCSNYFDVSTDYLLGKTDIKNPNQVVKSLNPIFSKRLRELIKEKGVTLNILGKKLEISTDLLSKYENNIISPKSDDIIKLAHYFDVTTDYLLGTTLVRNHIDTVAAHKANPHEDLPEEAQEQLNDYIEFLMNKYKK

[2] = biological target: T2, phiCDKH01 XRE family repressor (XRE-His) (Clostridioides difficile phage …, UniProt UPI000235AC6A 1-181); experiment: EMSA; 50 mM Tris-HCl pH 7.5, 50 mM NaCl, 200 mM KCl, 50 mM MgCl2, 5 mM EDTA, 5 mM DTT, 0.25 mg/mL BSA, 15 min, room temperature; 0.1 pmol DNA, 0-200 ng protein; 5% TBE gel; details: protein: recombinant; tag encoded at 3' end by primer S4); chain copies: 2; blunt
T2 sequence: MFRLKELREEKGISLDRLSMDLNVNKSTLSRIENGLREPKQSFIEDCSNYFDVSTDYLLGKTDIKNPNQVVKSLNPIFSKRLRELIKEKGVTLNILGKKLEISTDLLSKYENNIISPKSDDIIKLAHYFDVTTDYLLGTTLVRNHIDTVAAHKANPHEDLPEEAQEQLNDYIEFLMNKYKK

CATTATAGCAACTTTTATTTACATTATAGCAACTTTTTTTGTTATTACAATTAAAATTGCCAAAAAAGCAACAAAAATATTGACTTTTAACATTTTTGTTGCTATTATATAA (double strand) [S2]
binding [1]: binds

GCAACTTTTTTTGTTATTACAATTAAAATTGCCAAAAAAGCAACAAAAATATTGACTTTTAACATTTTTGTTGCTATTATATAAACAAGAACTTGCTTATATAGCAAAAAGTTAGAGGGTGA (double strand) [S3 (Methods text says S4)]
binding [1]: binds

GTTGCTATAATGTAAATAAAAGTTGCTATAATGAAAACTACAATAAAGGATGATTTTATATGTTTAGATTAAAAGAACTGAGAGAAG (double strand) [S1]
binding [1]: binds

B1: BIND (minimal XRE-binding fragment) (dsDNA)
DNA 1: TTACAATTAAAATTGCCAAAAAAGCAACAA
DNA 2: TTGTTGCTTTTTTGGCAATTTTAATTGTAA
binding result [2]: binds
